Assay results reported in publication PMC7038996.
Read-outs that look alike come from different tables or passages of the source.

Assays:
GST-APE1 WT [1] = target: T1, GST-APE1 WT (Xenopus laevis, UniProt Q6IP62 1-316); experiment: EMSA
T1 sequence: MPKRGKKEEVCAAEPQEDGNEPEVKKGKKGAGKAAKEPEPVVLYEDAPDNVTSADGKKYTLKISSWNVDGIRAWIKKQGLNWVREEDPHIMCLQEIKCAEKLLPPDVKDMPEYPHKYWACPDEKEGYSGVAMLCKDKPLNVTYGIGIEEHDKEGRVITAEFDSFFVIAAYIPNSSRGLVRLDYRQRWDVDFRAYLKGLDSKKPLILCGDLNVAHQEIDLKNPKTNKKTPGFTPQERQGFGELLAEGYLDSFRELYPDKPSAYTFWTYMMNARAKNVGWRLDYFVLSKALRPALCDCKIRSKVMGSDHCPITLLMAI

GST-APE1 F264Y = target: T2, GST-APE1 F264Y (Xenopus laevis, UniProt Q6IP62 1-316, F264Y); experiment: EMSA
T2 sequence: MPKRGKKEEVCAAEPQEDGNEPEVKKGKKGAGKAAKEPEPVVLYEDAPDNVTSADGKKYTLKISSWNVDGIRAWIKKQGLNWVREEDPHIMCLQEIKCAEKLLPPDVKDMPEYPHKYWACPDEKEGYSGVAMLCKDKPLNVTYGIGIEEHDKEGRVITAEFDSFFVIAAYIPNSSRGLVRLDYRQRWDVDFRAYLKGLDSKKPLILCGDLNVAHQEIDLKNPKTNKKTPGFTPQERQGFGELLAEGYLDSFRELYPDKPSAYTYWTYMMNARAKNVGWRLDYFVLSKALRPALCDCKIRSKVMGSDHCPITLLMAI

GST-APE1 DA = target: T3, GST-APE1 DA (Xenopus laevis, UniProt Q6IP62 1-316, D306A); experiment: EMSA
T3 sequence: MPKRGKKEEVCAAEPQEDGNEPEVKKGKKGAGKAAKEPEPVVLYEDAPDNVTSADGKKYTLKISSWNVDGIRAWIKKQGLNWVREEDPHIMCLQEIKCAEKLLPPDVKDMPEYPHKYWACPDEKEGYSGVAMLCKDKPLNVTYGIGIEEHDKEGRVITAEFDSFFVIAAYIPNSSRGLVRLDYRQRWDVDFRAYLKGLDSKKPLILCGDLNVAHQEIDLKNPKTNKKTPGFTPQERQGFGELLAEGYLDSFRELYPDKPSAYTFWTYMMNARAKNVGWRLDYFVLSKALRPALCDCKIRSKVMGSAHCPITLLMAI

GST-APE1 CA = target: T4, GST-APE1 CA (Xenopus laevis, UniProt Q6IP62 1-316, C92A;C98A); experiment: EMSA
T4 sequence: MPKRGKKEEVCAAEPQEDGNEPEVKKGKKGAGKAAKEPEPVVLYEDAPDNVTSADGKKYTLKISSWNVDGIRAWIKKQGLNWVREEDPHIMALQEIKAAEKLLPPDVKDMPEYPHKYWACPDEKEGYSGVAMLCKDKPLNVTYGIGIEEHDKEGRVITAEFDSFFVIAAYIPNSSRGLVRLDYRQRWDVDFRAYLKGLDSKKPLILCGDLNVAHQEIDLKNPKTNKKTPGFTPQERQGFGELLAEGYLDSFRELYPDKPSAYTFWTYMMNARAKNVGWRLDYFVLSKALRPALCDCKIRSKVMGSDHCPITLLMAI

GST-APE1 F264L = target: T5, GST-APE1 F264L (Xenopus laevis, UniProt Q6IP62 1-316, F264L); experiment: EMSA
T5 sequence: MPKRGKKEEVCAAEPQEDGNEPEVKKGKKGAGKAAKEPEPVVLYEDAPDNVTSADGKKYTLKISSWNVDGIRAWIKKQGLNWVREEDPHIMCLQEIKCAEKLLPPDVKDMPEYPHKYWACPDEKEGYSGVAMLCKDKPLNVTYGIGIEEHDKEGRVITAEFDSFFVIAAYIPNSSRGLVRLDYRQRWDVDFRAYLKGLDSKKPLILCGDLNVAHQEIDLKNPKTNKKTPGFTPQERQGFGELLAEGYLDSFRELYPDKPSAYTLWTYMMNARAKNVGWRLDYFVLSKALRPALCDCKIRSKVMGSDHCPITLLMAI

GST-APE1 WT [2] = target: T1, GST-APE1 WT; experiment: EMSA; remark: listed apart in the source
Myc-APE2 = target: T6, Myc-APE2 (UniProt Q6DDT4 1-517); experiment: pull-down
T6 sequence: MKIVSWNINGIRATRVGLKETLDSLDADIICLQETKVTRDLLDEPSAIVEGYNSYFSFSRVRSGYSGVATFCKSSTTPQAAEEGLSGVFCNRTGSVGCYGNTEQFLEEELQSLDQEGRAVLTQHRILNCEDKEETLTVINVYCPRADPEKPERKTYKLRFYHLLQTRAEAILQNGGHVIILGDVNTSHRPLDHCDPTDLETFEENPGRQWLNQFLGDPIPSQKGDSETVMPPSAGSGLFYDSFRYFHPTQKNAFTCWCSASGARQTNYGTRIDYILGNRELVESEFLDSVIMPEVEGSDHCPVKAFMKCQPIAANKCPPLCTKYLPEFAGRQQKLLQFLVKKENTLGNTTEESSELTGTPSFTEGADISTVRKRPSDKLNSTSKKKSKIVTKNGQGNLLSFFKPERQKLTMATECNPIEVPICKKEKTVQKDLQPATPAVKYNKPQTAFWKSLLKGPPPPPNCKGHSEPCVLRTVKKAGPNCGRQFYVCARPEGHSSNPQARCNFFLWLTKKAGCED

B1: dsDNA-SSB (dsDNA)
DNA 1: TCGGTACCCGGGGATCCTCTAGAGTCGACC
DNA 2: TGCAGGCATGCAAGCTTGGCGTAATCATGGTCATAGCTGT
DNA 3: ACAGCTATGACCATGATTACGCCAAGCTTGCATGCCTGCAGGTCGACTCTAGAGGATCCCCGGGTACCGA
modifications: nick between nt 30 and 31 of S1 (Nt.BstNBI, …^); CIP-treated
binding result (GST-APE1 WT [1]): binds | binding result (GST-APE1 F264Y): no binding | binding result (GST-APE1 DA): no binding | binding result (GST-APE1 CA): no binding | binding result (GST-APE1 F264L): no binding

B2: dsDNA (70 bp) (dsDNA)
DNA 1: TCGGTACCCGGGGATCCTCTAGAGTCGACCTGCAGGCATGCAAGCTTGGCGTAATCATGGTCATAGCTGT
DNA 2: ACAGCTATGACCATGATTACGCCAAGCTTGCATGCCTGCAGGTCGACTCTAGAGGATCCCCGGGTACCGA
binding result (GST-APE1 WT [2]): no binding

B3: biotin-dsDNA-SSB (dsDNA)
DNA 1: TCGGTACCCGGGGATCCTCTAGAGTCGACC
DNA 2: TGCAGGCATGCAAGCTTGGCGTAATCATGGTCATAGCTGT
DNA 3: ACAGCTATGACCATGATTACGCCAAGCTTGCATGCCTGCAGGTCGACTCTAGAGGATCCCCGGGTACCGA
modifications: nick by Nt.BstNBI; CIP-treated
binding result (Myc-APE2): binds

B4: biotin-dsDNA (dsDNA)
DNA 1: TCGGTACCCGGGGATCCTCTAGAGTCGACCTGCAGGCATGCAAGCTTGGCGTAATCATGGTCATAGCTGT
DNA 2: ACAGCTATGACCATGATTACGCCAAGCTTGCATGCCTGCAGGTCGACTCTAGAGGATCCCCGGGTACCGA
binding result (Myc-APE2): no binding
